According to the RNAGym collection of RNA variant scans (doi:10.1021/acssynbio.7b00057):

B1: Pistol ribozyme (parent)
chain: GGGUCGUUGUUCCAUAAUCGCGUGGAUAUGGCACGCAAGUUUCUACCGGGCACCGUAAAUGUCCGACUGGAGCCGUUCGGGCGGCUAUAAACAGACCUCAGGCCCGAAGCGUGGCGGCACCUGCCGCCGGUGGUAAAAAAGAUCGGAAGAGCACACGUCU

Variants of: B1
Assay: aptazyme ON/OFF ratio, guanine; higher = stronger switching; co-transcriptional cleavage with and without guanine

| Variant | aptazyme ON/OFF ratio |
| --- | --- |
| U7C U8A G9U U10C C13U | 1.8 |
| U7C U8A G9U U10C C13A | 1.05 |
| U7C U8A U10A C12A C13A | 1.17 |
| U7C U8A U10A C12A C13U | 1.15 |
| U7C U8A U10A C12A C13G | 1.21 |
| U7C U8A G9U U10A U11G C12G C13G | 1.26 |
| U7C U8A G9U U10A U11G C12G C13A | 1.15 |
| U7C U8A G9U U10A U11G C12G C13U | 1.12 |
| U7C U8A G9U U10C U11G C12U | 1.21 |
| U7C U8A G9U U10C U11G C12A | 1.07 |
| U7C U8A G9U U10C U11G C12G | 1.11 |
| U7C U8A G9U U10G U11A C13U | 1.03 |
| U7C U8A G9U U10G U11A C13G | 1.07 |
| U7C U8A G9U U10G U11A C13A | 1.06 |
| U7C U8A G9U U11C C13G | 1.03 |
| U7C U8A G9U U11C C13A | 1.04 |
| U7C U8A G9U U11C C13U | 1.03 |
| U7C U8A U10A U11A | 1.14 |
| U7C U8A U10A U11C | 1.05 |
| U7C U8A U10A U11G | 1.22 |
| U7C U8A U10A U11A C13U | 1.17 |
| U7C U8A U10A U11A C13G | 1.19 |
| U7C U8A U10A U11A C13A | 1.17 |
| U7C U8A G9U U10A U11A C12U C13G | 1.21 |

| Variant | aptazyme ON/OFF ratio |
| --- | --- |
| U7C U8A G9U U10A U11A C12U C13U | 1.36 |
| U7C U8A G9U U10A U11A C12U C13A | 1.2 |
| U7C U8A G9C U11G C13U | 1.15 |
| U7C U8A G9C U11G C13G | 1.05 |
| U7C U8A U10A U11A C12G C13U | 1.23 |
| U7C U8A U10A U11A C12G C13A | 1.23 |
| U7C U8A U10A U11A C12G C13G | 1.31 |
| U7C U8A G9U U10G U11G C13G | 1.04 |
| U7C U8A G9U U10G U11G C13A | 1.13 |
| U7C U8A G9U U10G U11G C13U | 1.06 |
| U7C U8A G9U U11C C12U | 1.17 |
| U7C U8A G9U U11C C12G | 1.14 |
| U7C U8A G9U U11C C12A | 1.13 |
| U7C U8A U10C C12A | 1.41 |
| U7C U8A U10C C12U | 3.73 |
| U7C U8A U10C C12G | 1.63 |
| U7C U8A U10A U11G C12A C13A | 1.12 |
| U7C U8A U10A U11G C12A C13U | 1.19 |
| U7C U8A U10A U11G C12A C13G | 1.17 |
| U7C U8A G9U U10A C12G C13G | 1.17 |
| U7C U8A G9U U10A C12G C13U | 1.25 |
| U7C U8A G9U U10A C12G C13A | 1.12 |
| U7C U8A G9U U10G U11A | 1.05 |
| U7C U8A G9U U10G U11G | 1.08 |

| Variant | aptazyme ON/OFF ratio |
| --- | --- |
| U7C U8A G9U U10G U11C | 1.07 |
| U7C U8A G9U U10C U11G C12U C13G | 1.13 |
| U7C U8A G9U U10C U11G C12U C13A | 1.12 |
| U7C U8A G9U U10C U11G C12U C13U | 1.15 |
| U7C U8A G9U U10C C12U | 1.13 |
| U7C U8A G9U U10C C12A | 1.14 |
| U7C U8A G9U U10C C12G | 1.22 |
| U7C U8A U10C C12U C13A | 1.17 |
| U7C U8A U10C C12U C13G | 1.17 |
| U7C U8A G9U U10A U11G C13U | 1.17 |
| U7C U8A G9U U10A U11G C13A | 1.16 |
| U7C U8A G9U U10A U11G C13G | 1.03 |
| U7C U8A G9U U10C U11A C12A C13A | 1.08 |
| U7C U8A G9U U10C U11A C12A C13U | 1.15 |
| U7C U8A G9U U10C U11A C12A C13G | 1.13 |
| U7C U8A G9U U11A C12G | 1.14 |
| U7C U8A G9U U11A C12U | 1.06 |
| U7C U8A G9U U11A C12A | 1.19 |
| U7C U8A G9U U10C U11G C12A C13G | 1.09 |
| U7C U8A G9U U10C U11G C12A C13A | 1.11 |
| U7C U8A G9U U10C U11G C12A C13U | 1.1 |
| U7C U8A G9U U10G U11C C12U C13A | 1.16 |
| U7C U8A G9U U10G U11C C12U C13G | 1.14 |
| U7C U8A G9U U10G U11C C12U C13U | 1.22 |

| Variant | aptazyme ON/OFF ratio |
| --- | --- |
| U7C U8A G9U U10A | 1.16 |
| U7C U8A G9U U10C | 3.35 |
| U7C U8A G9U U10G | 1.26 |
| U7C U8A U10A | 1.1 |
| U7C U8A U10C | 1.76 |
| U7C U8A G9U U11G C12G C13A | 1.14 |
| U7C U8A G9U U11G C12G C13U | 1.14 |
| U7C U8A G9U U11G C12G C13G | 1.16 |
| U7C U8A G9U U10C C12U C13G | 1.12 |
| U7C U8A G9U U10C C12U C13U | 1.13 |
| U7C U8A G9U U10C C12U C13A | 1.12 |
| U7C U8A G9U U11A | 1.08 |
| U7C U8A G9U U11C | 1.07 |
| U7C U8A G9U U11G | 1.21 |
| U7C U8A G9U U10G U11C C13U | 1.05 |
| U7C U8A G9U U10G U11C C13A | 1.2 |
| U7C U8A G9U U10G U11C C13G | 1.07 |
| U7C U8A G9U U10G C13A | 1.41 |
| U7C U8A G9U U10G C13G | 1.08 |
| U7C U8A G9U U10G C13U | 1.31 |
| U7C U8A U10A C13G | 1.08 |
| U7C U8A U10A C13A | 1.07 |
| U7C U8A U10A C13U | 1.06 |
| U7C U8A G9U U11A C12A C13A | 1.08 |

| Variant | aptazyme ON/OFF ratio |
| --- | --- |
| U7C U8A G9U U11A C12A C13G | 1.18 |
| U7C U8A G9U U11A C12A C13U | 1.41 |
| U7C U8A U10A U11C C12U | 1.01 |
| U7C U8A U10A U11C C12A | 1.09 |
| U7C U8A U10A U11C C12G | 1.13 |
| U7C U8A G9U U10A U11C C12G | 1.28 |
| U7C U8A G9U U10A U11C C12A | 1.15 |
| U7C U8A G9U U10A U11C C12U | 1.07 |
| U7C U8A G9U C12G | 1.16 |
| U7C U8A G9U C12A | 1.06 |
| U7C U8A G9U C12U | 1.34 |
| U7C U8A G9U C12G C13G | 1.21 |
| U7C U8A G9U C12G C13U | 1.22 |
| U7C U8A G9U C12G C13A | 1.21 |
| U7C U8A G9U U10G U11G C12G C13U | 1.14 |
| U7C U8A G9U U10G U11G C12G C13G | 1.14 |
| U7C U8A G9U U10G U11G C12G C13A | 1.21 |
| U7C U8A G9U U10C U11C C12G | 1.03 |
| U7C U8A G9U U10C U11C C12A | 1.06 |
| U7C U8A G9U U10C U11C C12U | 1.08 |
| U7C U8A U10A C12U C13U | 1.3 |
| U7C U8A U10A C12U C13A | 1.22 |
| U7C U8A U10A C12U C13G | 1.18 |
| U7C U8A G9U U10G U11A C12A | 1.34 |

| Variant | aptazyme ON/OFF ratio |
| --- | --- |
| U7C U8A G9U U10G U11A C12G | 1.21 |
| U7C U8A G9U U10G U11A C12U | 1.06 |
| U7C U8A U10A C12G | 1.19 |
| U7C U8A U10A C12U | 1.13 |
| U7C U8A U10A C12A | 1.3 |
| U7C U8A G9U U10A C12A | 1.19 |
| U7C U8A G9U U10A C12G | 1.18 |
| U7C U8A G9U U10A C12U | 1.19 |
| U7C U8A G9U U11C C12A C13U | 1.2 |
| U7C U8A G9U U11C C12A C13G | 1.07 |
| U7C U8A G9U U11C C12A C13A | 1.1 |
| U7C U8A G9U U10C U11C C13U | 1.01 |
| U7C U8A G9U U10C U11C C13A | 1.02 |
| U7C U8A G9U U10C U11C C13G | 1.03 |
| U7C U8A U10A U11A C12U C13A | 1.23 |
| U7C U8A U10A U11A C12U C13G | 1.35 |
| U7C U8A U10A U11A C12U C13U | 1.13 |
| U7C U8A G9U U10A C12A C13U | 1.22 |
| U7C U8A G9U U10A C12A C13A | 1.29 |
| U7C U8A G9U U10A C12A C13G | 1.16 |
| U7C U8A G9U C13U | 1.28 |
| U7C U8A G9U C13G | 1.03 |
| U7C U8A G9U C13A | 1.16 |
| U7C U8A G9U U10G U11G C12A C13G | 1.11 |

| Variant | aptazyme ON/OFF ratio |
| --- | --- |
| U7C U8A G9U U10G U11G C12A C13U | 1.26 |
| U7C U8A G9U U10G U11G C12A C13A | 1.07 |
| U7C U8A G9U U10G U11A C12G C13A | 1.21 |
| U7C U8A G9U U10G U11A C12G C13U | 1.2 |
| U7C U8A G9U U10G U11A C12G C13G | 1.22 |
| U7C U8A G9U U10A U11C C12G C13A | 1.13 |
| U7C U8A G9U U10A U11C C12G C13U | 1.25 |
| U7C U8A G9U U10A U11C C12G C13G | 1.19 |
| U7C U8A G9U U10G U11G C12U | 1.25 |
| U7C U8A G9U U10G U11G C12A | 1.16 |
| U7C U8A G9U U10G U11G C12G | 1.26 |
| U7C U8A G9U U10C U11A C12G C13U | 1.13 |
| U7C U8A G9U U10C U11A C12G C13G | 1.09 |
| U7C U8A G9U U10C U11A C12G C13A | 1.1 |
| U7C U8A U10A U11G C12U C13G | 1.29 |
| U7C U8A U10A U11G C12U C13U | 1.2 |
| U7C U8A U10A U11G C12U C13A | 1.18 |
| U7C U8A G9U U10A U11C C13G | 1.05 |
| U7C U8A G9U U10A U11C C13A | 1.07 |
| U7C U8A G9U U10A U11C C13U | 1.06 |
| U7C U8A G9U U10A C13G | 1.05 |
| U7C U8A G9U U10A C13A | 1.2 |
| U7C U8A G9U U10A C13U | 1.19 |
